Laboratory results as given in patent publication US20230322924A1 (Janssen / Centocor, published 2023).

Assays:
Cyno CD33 ECD-HSA [1] = target: T1, Cyno CD33 ECD-HSA (cynomolgus monkey); assay: ProteOn SPR, mAb captured by anti-human Fc, 1:1 Langmuir fit
T1 construct: Cyno CD33 extracellular domain fused to monomeric human serum albumin and a six-histidine tag; also called C33W1
Procedure: (§1) The panel of mAbs was then further characterized for full affinity analysis as well as epitope binning. The binding of anti-CD33 mAbs to recombinant human CD33 ECD-HSA (C33W2) and cyno CD33 ECD-HSA (C33W1) was measured by ProteOn SPR (Bio-Rad). […] Different mAbs were captured on the anti-human Fc IgG surface at 0.25 or 0.5 μg/ml (160-300 RU) in vertical ligand orientation, with the 6th ligand channel as no ligand surface control. Human and cyno CD33-HSA proteins at 0.3 μM concentration in 3-fold dilution series of 5 concentrations flew in as analyte to bind to captured mAbs in the horizontal orientation. A buffer sample was also injected in the 6th channel to monitor the dissociation of captured mAb and baseline stability. […] The raw biding data were processed by double referencing after subtracting the response data from: 1) the inter-spot to correct for the non-specific interactions between the Ag and the empty chip surface; 2) the buffer channel to correct for baseline drifting due to the dissociation of captured mAb surface over time. The processed data at all antigen concentrations for each mAb were globally fit to a 1:1 simple Langmuir binding model to extract estimates of the kinetic (kₒₙ, koff) and affinity (Kd) constants.

Human CD33 ECD-HSA [2] = target: Human CD33 ECD-HSA (human); assay: as above
Human CD33 ECD-HSA (human), sequence (chain, as listed by the source): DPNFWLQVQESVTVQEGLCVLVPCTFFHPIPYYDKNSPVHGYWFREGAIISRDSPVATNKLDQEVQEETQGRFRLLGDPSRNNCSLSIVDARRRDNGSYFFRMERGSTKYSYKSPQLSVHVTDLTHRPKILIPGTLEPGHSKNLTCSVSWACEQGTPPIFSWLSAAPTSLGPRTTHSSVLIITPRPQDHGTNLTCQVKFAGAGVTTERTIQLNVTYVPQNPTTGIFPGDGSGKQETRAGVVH
Procedure: as §1

Human CD33 ECD-HSA [3] = target: Human CD33 ECD-HSA (human); assay: SPRi off-rate screen (IBIS MX96), mAb captured by anti-human Fc; column head prints KD
Procedure: (§2) To begin assessing the biophysical binding properties of the purified mAbs an off-rate screen was performed. 76 OMNIRat anti-CD33 mAbs were tested for binding to recombinant human CD33 ECD-HSA (C33W2) and cyno CD33 ECD-HSA (C33W1) proteins (Janssen production) and the off-rate was measured by IBIS MX96 SPRi array platform (Carterra; Newton, PA). […] The sensor chip was transferred to the Continuous Flow Microspotter (CFM) unit to capture each anti-CD33 mAb at 10 μg/ml for 10 minutes. Binding was measured on IBIS SPRi by single cycle kinetics without regeneration. […] The raw binding data (.trix file format) were referenced and aligned using SprintX software (Wasatch, Ver 1.9.3.2), then exported (.ibmx file format) to Scrubber software (Ver. 2.0) for 1:1 binding kinetic analyses (Wasatch, version 2.0.0.33) to extract the koff results.

[4] = target: T2, Cyno CD33 full length, expressed on HEK293F cells (cynomolgus monkey); assay: flow cytometry, HEK293F cells expressing cyno CD33
T2 construct: HEK293F cells transduced with lentivirus containing full length cyno CD33 (Genbank XP_005590138.1); also called cyCD33
Procedure: (§3) OMNIRat antibodies identified via immunization, v-region cloned and subsequently expressed and purified were characterized further for binding to CD33 expressing cells and binding to recombinant antigens. The purified antibodies were assessed for binding to stably transfected HEK293F cells expressing human CD33 or cyno CD33 (generation described above) along with the parental HEK293F as negative control. Cells were harvested from tissue culture flasks using non-enzymatic dissociation buffer (Thermo Scientific). The flasks were rinsed twice with PBS and dissociation buffer was added to the flask, and the flask was incubated for 10 minutes at 37° C. until the cells became non-adherent. The cells were centrifuged at 300 g for 5 minutes and resuspended at 1.0×10⁶ cells/ml in staining buffer (Becton Dickinson; Franklin Lakes, NJ). 50,000 cells/well of each cell type was plated in 50 μl of staining buffer in round bottom plates (Becton Dickinson). […] 100 μl staining buffer was added to all wells of each plate, the plates were spun at 300 g for 5 min, the buffer was removed, 200 μl staining buffer was added to all wells of each plate, the plates were spun at 300 g for 5 min, and the buffer was removed. 50 μl of 2 μg/ml of Goat-anti-human Fc AF647 secondary antibody (Jackson Immunoresearch; West Grove, PA) was added to all wells of the plates, and the plates were incubated for 30 min at 4° C. 100 μl staining buffer was added to all wells of the plates, the plates were spun at 300 g for 5 min, and the buffer was removed. 200 μl running buffer (running buffer is Staining buffer, 1 mM EDTA, 0.1% Pluronic Acid) was added to all wells of the plates, the plates were spun at 300 g for 5 min, and the buffer was removed. 30 μl running buffer containing Sytox Green live/dead dye (ThermoFisher) was added to all wells with cells and the plates were read on an iQue IntelliCyt flow cytometer. Cells were gated on forward vs. side scatter to eliminate debris, then on singlets and then on live cells which excluded the Sytox stain. Antibody binding was assessed by the mean fluorescence intensity in the AF647 channel.

Cyno CD33 ECD-HSA [5] = target: T1, Cyno CD33 ECD-HSA; assay: SPRi off-rate screen (IBIS MX96), mAb captured by anti-human Fc; column head prints Cyno CD33 binding KD
Procedure: as §2

[6] = target: T3, Human CD33 full length, expressed on HEK293F cells (human, UniProt P20138 18-364); assay: flow cytometry, HEK293F cells expressing human CD33
T3 construct: HEK293F cells transduced with lentivirus containing full length human CD33; also called huCD33
T3 sequence (P20138 18-364 limits assumed): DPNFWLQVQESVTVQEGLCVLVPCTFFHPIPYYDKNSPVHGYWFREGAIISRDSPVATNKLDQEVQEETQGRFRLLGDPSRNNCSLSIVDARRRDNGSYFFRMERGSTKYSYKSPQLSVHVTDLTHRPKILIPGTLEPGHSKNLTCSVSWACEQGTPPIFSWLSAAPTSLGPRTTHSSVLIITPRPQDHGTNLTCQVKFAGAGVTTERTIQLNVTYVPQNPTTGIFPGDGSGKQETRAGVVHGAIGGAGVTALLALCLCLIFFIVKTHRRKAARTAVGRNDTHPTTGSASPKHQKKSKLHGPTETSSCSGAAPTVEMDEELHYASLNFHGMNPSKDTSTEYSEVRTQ
Procedure: as §3

Binder | Kd (Cyno CD33 ECD-HSA [1]) [nM] | koff (Cyno CD33 ECD-HSA [1]) [s⁻¹] | kon (Cyno CD33 ECD-HSA [1]) [M⁻¹ s⁻¹] | Kd (Human CD33 ECD-HSA [2]) [nM] | koff (Human CD33 ECD-HSA [2]) [s⁻¹] | kon (Human CD33 ECD-HSA [2]) [M⁻¹ s⁻¹] | koff (Human CD33 ECD-HSA [3]) [s⁻¹] | MFI at 0 nM mAb (background) [4] [MFI] | MFI at 0.6 nM mAb [4] [MFI] | MFI at 6 nM mAb [4] [MFI] | MFI at 60 nM mAb [4] [MFI] | koff (Cyno CD33 ECD-HSA [5]) [s⁻¹] | MFI at 0 nM mAb (background) [6] [MFI] | MFI at 0.6 nM mAb [6] [MFI] | MFI at 6 nM mAb [6] [MFI] | MFI at 60 nM mAb [6] [MFI]
C33B72 (antibody, IgG1, V domains shown, huIgG1 F405L; also called C33F77; C33H65/C33L47) VH: QVQLVESGGGVVQPGRSLRLSCAASGFTFSSYGMHWVRQAPGKGLEWVVVISYDGSNKYYADSVKGRFTISRDNSKNTLYLQMNSLRAEDTAVYYCAKDFRDFDWLPPDSTSYHGMDVWGQGTTVTVSS VL: SYELTQPPSVSVSPGQTASITCSGDKLGDKYACWYQQKPGQSPVVVIYQDRKRPSGIPERFSGSNFGNTATLTISGTQAMDEADYYCQAWDSSTVVFGGGTKLTVL | 0.587 | 0.00054 | 919000 | 0.23 | 0.0002 | 871000 | 0.000284 | 90.8 | 3890 | 14000 | 19400 | 0.000763 | 93.3 | 12500 | 105000 | 328000
C33B82 (antibody, IgG1, V domains shown, huIgG1 F405L; also called C33F87; C33H78/C33L57) VH: QVQLVESGGGVVQPGRSLRLSCAASGFTFSSYGMHWVRQAPGKGLEWVAVISYDGSNKYYADSVKGRFTISRDNSKNTLFLQMNSLRAEDTAVYYCAKDFRYFDWLPPDSSSYYGMDVWGQGTTVTVSS VL: SYELTQPPSVSVSPGQTASITCSGDELGNKYACWYQQKPGQSPVVVVYQDRKRPSGIPERFSGSNFGNTATLTISGTQAMDEADYYCQAWDSSTVVFGGGTKLTVL | 1.38 | 0.000751 | 545000 | 0.61 | 0.00027 | 445000 | 0.000341 | 84.2 | 1540 | 6620 | 14300 | 0.00067 | 73.4 | 5030 | 41300 | 189000
C33B125 (antibody, IgG1, V domains shown, huIgG1 F405L; also called C33F130; C33H84/C33L66) VH: QVQLVESGGGVVQPGRSLRLSCAASGFTFSSYGMHWVRQAPGKGLEWVAVISYDGSNKYYADSVKGRFTISRDNSKNTLYLQMNSLRAEDTAVYYCAKDFRSFDWLPPDSTSYYGMDVWGQGTTVTVSS VL: SYELTQPPSVSVSPGQTASITCSGDKLGDKYVCWYQQKPGQSPVVVIHQDRKRPSGIPERFSGSNFGNTATLTISGTQAMDEADYYCQAWDSSTVVFGGGTKLTVL | 0.304 | 0.000339 | 1.12e+06 | 0.14 | 0.000134 | 992000 | 0.000154 | 70.2 | 3460 | 11500 | 15600 | 0.000351 | 78.3 | 9200 | 79700 | 259000
C33B55 (antibody, IgG1, V domains shown, huIgG1 F405L; also called C33F60; C33H45/C33L11) VH: QVQLVESGGGVVQPGRSLRLSCAASGFTFSSYGMHWVRQSPGKGLEWVAVISYDGSNKYCADSVKGRFTISRDNSKSTLYLQMNSLRAEDTAVYYCAKDFRSLDWLPPDSTSYDGMDVWGQGTTVTVSS VL: SYELTQPPSVSVSPGQTASITCSGHKLGDKYACWYQQKPGQSPVVVIYKDSKRPSGIPERFSGSNFGNTATLTISGTQAMDEADYYCQAWDSSTVVFGGGTKLTVL | 0.0723 | 8.37e-05 | 1.16e+06 | 0.26 | 0.000253 | 985000 | 0.000215 | 69.4 | 2430 | 9990 | 16000 | 0.000116 | 105 | 7630 | 59200 | 188000
C33B73 (antibody, IgG1, V domains shown, huIgG1 F405L; also called C33F78; C33H66/C33L60) VH: QVQLVESGGGVVQPGRSLRLSCVASGFTFSSYGMHWVRQAPGKGLEWVAVISYDGSNKYYADSVKGRFTISRDNSKNTLYLQMNSLRAEGTAVYYCAKDFRSFDWLPPDSASYHGMDVWGQGTTVTVSS VL: SYELTQPPSVSVSPGQTASITCSGDKLGDKYACWYQQKPGQSPVLVIYQDGKRPSGIPERFSGSNFGNKATLTISGTQAMDEADYYCQAWDRNTVVFGGGTKLTVL | 0.846 | 0.000508 | 600000 | 0.1 | 5.59e-05 | 559000 | 9.12e-05 | 72.5 | 796 | 6990 | 14800 | 0.000408 | 94 | 4030 | 33400 | 201000
C33B79 (antibody, IgG1, V domains shown, huIgG1 F405L; also called C33F84; C33H74/C33L38) VH: QVQLVESGGGVVQPGRSLRLSCAASRFTFSSYGMHWVRQAPGKGLEWVAVISYDGSNKYYADSVKGRFTISRDNSKNTLYLQMNSLRAEDTAVHYCAKDFRSFDWLPPDSASYHGMDVWGQGTTVTVSS VL: SYELTQPPSVSVPPGQTASITCSGDKLGDKYACWYQQKPGQSPVLVIYQDNKRPSGIPERFSGSNSGNTATLTISGTQAMDEADYYCQAWGRNTVVFGGGTKLTVL | 4.01 | 0.0022 | 548000 | 0.76 | 0.00039 | 515000 | 0.000328 | 63.6 | 1080 | 6430 | 15500 | 0.00682 | 77.8 | 4990 | 41900 | 237000
C33B83 (antibody, V domains shown, huIgG1 F405L; also called C33F88; C33H81/C33L53) VH: QVQLVESGGGVVQPGRSLRLSCAASGFTFSAYGMHWVRQAPGKGLEWVAVISYDGSNKYYADSVKGRFTISRDNSKNTLYLQMNSLRAEGTAVYYCAKDFRSFDWLPPDSASYHGMDVWGQGTTVTVSS VL: not shown | 11.7 | 0.00288 | 247000 | 1.93 | 0.000521 | 270000 | 0.000461 | 87.3 | 159 | 687 | 5300 | 0.00217 | 87.4 | 1020 | 7860 | 93000
